The results in this text go back to US20050181362A1 (published 2005).

Sequences and labels used below:
B1: GR LBD (F602S) 521-777 (receptor)
chain: GSVPATLPQLTPTLVSLLEVIEPEVLYAGYDSSVPDSTWRIMTTLNMLGGRQVIAAVKWAKAIPGFRNLHLDDQMTLLQYSWMSLMAFALGWRSYRQSSANLLCFAPDLIINEQRMTLPCMYDQCKHMLYVSSELHRLQVSYEEYLCMKTLLLLSSVPKDGLKSQELFDEIRMTYIKELGKAIVKREGNSSQNWQRFYQLTKLLDSMHEVVENLLNYCFQTFLDKTMSIEFPEMLAEIITNQIPKYSNGNIKKLLFHQK
notes: also called GR(521-777) F602S; cleaved GR LBD
B2: TIF2 732-756 peptide (peptide)
peptide: QEPVSPKKKENALLRYLLDKDDTKD
notes: Free peptide used in solution for the stability study and for co-crystallization; No biotin is mentioned for these uses; also called TIF2 peptide; TIF2 fragment

The data set “X-ray crystal structure” concerns the molecule itself. In words: X-ray crystal structure.
The data set “GR LBD (F602S) 521-777” has as its target B1. In words: co-crystallization. The method, then:
The GR/TIF2/DEX crystals were grown at room temperature in hanging drops containing 3.0 ul of the above protein-ligand solutions, and 0.5 ul of well buffer (50 mM HEPES, pH 7.5-8.5 (preferred pH range is 8.0 to 8.5), and 1.7-2.3M ammonium formate). Crystals were also obtained with mixing of the above protein solution and the well buffer at various volume ratios. Crystals appeared overnight and continously grew to a size up to 300 micron within a week. Before data collection, crystals were transiently mixed with the well buffer that contained an additional 25% glycerol, and were then flash frozen in liquid nitrogen.

For the molecule B1, the binding result in “X-ray crystal structure” is on record as “binds”.

As to B2, the binding result in the data set with GR LBD (F602S) 521-777 was “binds”.
